# T1: Y152A NKG2D-Fc (human, UniProt P26718 78-216)
# T1 construct: Biotinylated for the phage selections; also called non-natural Y152A NKG2D; not shown: Fc part; not described
# T1 sequence (looked up): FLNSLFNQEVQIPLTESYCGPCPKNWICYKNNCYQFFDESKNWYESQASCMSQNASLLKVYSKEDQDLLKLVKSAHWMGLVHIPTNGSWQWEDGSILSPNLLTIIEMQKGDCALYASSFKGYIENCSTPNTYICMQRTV
# T2: human NKG2D-Fc (human, UniProt P26718 78-216, limits assumed)
# T2 construct: also called natural NKG2D-Fc; not shown: Fc part
# T2 sequence (looked up): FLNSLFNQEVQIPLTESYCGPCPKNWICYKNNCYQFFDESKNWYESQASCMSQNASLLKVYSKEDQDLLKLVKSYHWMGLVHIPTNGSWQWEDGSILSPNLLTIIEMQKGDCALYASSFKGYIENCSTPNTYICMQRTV
# T3: biotinylated human NKG2D (Example 3) (human, UniProt P26718 78-216, limits assumed, biotinylated (site not stated))
# T3 construct: also called recombinant biotinylated NKG2D; surface coated biotinylated human NKG2D
# T3 sequence (looked up): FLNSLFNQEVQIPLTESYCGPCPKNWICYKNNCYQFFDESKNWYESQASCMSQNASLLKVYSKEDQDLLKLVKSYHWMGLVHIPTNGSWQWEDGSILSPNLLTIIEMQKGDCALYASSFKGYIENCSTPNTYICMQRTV
# T4: FGFR3 (plate-coated) (UniProt P22607 23-375)
# T4 construct: also called Fibroblast Growth Factor Receptor 3
# T4 sequence (looked up): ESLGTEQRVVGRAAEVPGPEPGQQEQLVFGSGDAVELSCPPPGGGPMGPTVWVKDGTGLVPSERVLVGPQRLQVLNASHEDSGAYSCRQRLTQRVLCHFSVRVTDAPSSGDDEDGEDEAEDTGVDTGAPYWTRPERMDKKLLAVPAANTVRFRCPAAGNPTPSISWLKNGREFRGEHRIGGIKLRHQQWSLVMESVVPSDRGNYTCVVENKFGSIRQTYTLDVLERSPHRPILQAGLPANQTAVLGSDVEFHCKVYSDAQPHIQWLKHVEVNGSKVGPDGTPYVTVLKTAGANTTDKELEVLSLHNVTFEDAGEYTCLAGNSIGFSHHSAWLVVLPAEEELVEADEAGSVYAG
# B1: MICA25.17 (ligand)
# chain: EPHSLRYNLTVLSWDGSVQSGFLTEVHLDGQPFLRCDRQKCRAKPQGQWAEDVLGNKTWDRETRDLTGWGTTLLMTLAHIKDQKEGLHSLQEIRVCEIHEDNSTRSSQHFYYDGELFLSQNLETLEWTMPQSSRAQTLAMNVRNFLKEDAMETDIGYRLMRADCLSELRRYLKSGVVLRRTV
# notes: Tested as phage clone (M13 pIII fusion)
# B2: MICA25.18 (ligand)
# chain: EPHSLRYNLTVLSWDGSVQSGFLTEVHLDGQPFLRCDRQKCRAKPQGQWAEDVLGNKTWDRETRDLTGWGTFLRMTLAHIKDQKEGLHSLQEIRVCEIHEDNSTRSSQHFYYDGELFLSQNLETLEWTMPQSSRAQTLAMNVRNFLKEDAMETDRSGLLMRADCLSELRRYLKSGVVLRRTV
# notes: as for B1
# B3: ULBP3 R162G α1-α2 domain (phage-displayed library parent) (ligand)
# chain: AAEPHSLWYNFTIIHLPRHGQQWCEVQSQVDQKNFLSYDCGSDKVLSMGHLEEQLYATDAWGKQLEMLREVGQRLRLELADTELEDFTPSGPLTLQVRMSCESEADGYIRGSWQFSFDGRKFLLFDSNNRKWTVVHAGARRMKEKWEKDSGLTTFFKMVSMGDCKSWLRDFLMHRKKRLEPTAP
# B4: WED-MICA (ligand)
# chain: EPHSLRYNLTVLSWDGSVQSGFLTEVHLDGQPFLRCDRQKCRAKPQGQWAEDVLGNKTWDRETRDLTGWGKDLRMTLAHIKDQKEGLHSLQEIRVCEIHEDNSTRSSQHFYYDGELFLSQNLETKEWTMPQSSRAQTLAMNVRNFLKEDAMETDTHYHAMHADCLQELRRYLKSGVVLRRTVPPMVQVTRSEASGGSGDRVTITCRASQDVSTAVAWYQQKPGKAPKLLIYSASFLYSGVPSRFSGSGSGTDFTLTISSLQPEDFATYYCQQSYTTPPTFGQGTKVEIKGGSSRSSSSGGGGSGGGGEVQLVESGGGLVQPGGSLRLSCAASGFTFTSTGISWVRQAPGKGLEWVGRIYPTNGSTNYADSVKGRFTISADTSKNTAYLQMNSLRAEDTAVYYCARTYGIYDLYVDYTEYVMDYWGQGTLVTVSSGGSSRSSSSGGGGSGGGGDIQMTQSPSSLSASGGSGQITVTCRASGFYPWNITLSWRQDGVSLSHDTQQWGDVLPDGQGTYQTWVATRISQGEEQRFTCYMEHSGQHSTHPVPSGKGSHHHHHH
# notes: also called WED-α1-α2 domains; WED soluble MICA protein
# B5: MICA-α3-iFv.2 (designed binder)
# chain: EPHSLRYNLTVLSWDGSVQSGFLTEVHLDGQPFLRCDRQKCRAKPQGQWAEDVLGNKTWDRETRDLTGNGKDLRMTLAHIKDQKEGLHSLQEIRVCEIHEDNSTRSSQHFYYDGELFLSQNLETKEWTMPQSSRAQTLAMNVRNFLKEDAMKTKTHYHAMHADCLQELRRYLKSGVVLRRTVPPMVQVTRSEASGGSGDRVTITCRASQDVSTAVAWYQQKPGKAPKLLIYSASFLYSGVPSRFSGSGSGTDFTLTISSLQPEDFATYYCQQSYTTPPTFGQGTKVEIKGGSSRSSSSGGGGSGGGGEVQLVESGGGLVQPGGSLRLSCAASGFTFTSTGISWVRQAPGKGLEWVGRIYPTNGSTNYADSVKGRFTISADTSKNTAYLQMNSLRAEDTAVYYCARTYGIYDLYVDYTEYVMDYWGQGTLVTVSSGGSSRSSSSGGGGSGGGGDIQMTQSPSSLSASGGSGQITVTCRASGFYPWNITLSWRQDGVSLSHDTQQWGDVLPDGQGTYQTWVATRISQGEEQRFTCYMEHSGQHSTHPVPSGKGSHHHHHH
# notes: His-tagged, monomeric, made in insect cells; also called sMICA-α3-iFv.2
# B6: V151D (ligand)
# α1-α2 domain, fused to pIII of M13 phage: AAEPHSLSYDITVIPKFRPGPRWCAVQGQVDEKTFLHYDCGNKTVTPVSPLGKKLNVTTAWKAQNPVLREVVDILTEQLRDIQLENYTPKEPLTLQARMSCEQKAEGHSSGSWQFSFDGQIFLLFDSEKRMWTTVHPGARKMKEKWENDKDVAMSFHYFSMGDCIGWLEDFLMGMDSTLEPSAGAP
# B7: ULBP2-α3-iFv.2 (designed binder)
# chain: EPHSLCYDITVIPKFRPGPRWCAVQGQVDEKTFLHYDCGNKTVTPVSPLGKKLNVTTAWKAQNPVLREVVDILTEQLRDIQLENYTPKEPLTLQARMSCEQKAEGHSSGSWQFSFDGQIFLLFDSEKRMWTTVHPGARKMKEKWENDKVVAMSFHYFSMGDCIGWLEDFLMGMDSTLEPSAGAPPMVQVTRSEASGGSGDRVTITCRASQDVSTAVAWYQQKPGKAPKLLIYSASFLYSGVPSRFSGSGSGTDFTLTISSLQPEDFATYYCQQSYTTPPTFGQGTKVEIKGGSSRSSSSGGGGSGGGGEVQLVESGGGLVQPGGSLRLSCAASGFTFTSTGISWVRQAPGKGLEWVGRIYPTNGSTNYADSVKGRFTISADTSKNTAYLQMNSLRAEDTAVYYCARTYGIYDLYVDYTEYVMDYWGQGTLVTVSSGGSSRSSSSGGGGSGGGGDIQMTQSPSSLSASGGSGQITVTCRASGFYPWNITLSWRQDGVSLSHDTQQWGDVLPDGQGTYQTWVATRISQGEEQRFTCYMEHSGQHSTHPVPSGKGSHHHHHH
# notes: His-tagged, monomeric, insect cells; also called NKG2DL-α3-iFv.2 (ULBP2)
# Columns and labels:
# [1] = target: T1, Y152A NKG2D-Fc; assay: phage ELISA: phage clone titrated against Y152A NKG2D
# [2] = target: T2, human NKG2D-Fc; assay: phage ELISA: phage-displayed ULBP3 α1-α2 variant titrated against NKG2D (the legend gives no form; Example 5 selected on human NKG2D-Fc)
# [3] = target: T3, biotinylated human NKG2D (Example 3); assay: biolayer interferometry (Octet), biotinylated human NKG2D on the surface, 100 nM analyte
# [4] = target: T3, biotinylated human NKG2D (Example 3); assay: biolayer interferometry (Octet), Kd = kOFF/kON
# [5] = target: T4, FGFR3 (plate-coated); assay: ELISA on FGFR3-coated wells after 1 h at 70 C and 1 h at room temperature
# [6] = target: T4, FGFR3 (plate-coated); assay: ELISA on FGFR3-coated wells after 1 h at 80 C and 1 h at room temperature
# [7] = target: T4, FGFR3 (plate-coated); assay: ELISA: FGFR3 coated at 2 ug/ml, protein titrated, bound protein detected with NKG2D-Fc and anti-Fc-HRP
# [8] = target: T2, human NKG2D-Fc; assay: phage ELISA: phage-displayed ULBP2 α1-α2 variant titrated against NKG2D (the legend gives no form; Example 5 selected on human NKG2D-Fc)
# [9] = target: T2, human NKG2D-Fc; assay: ELISA: protein captured on FGFR3 detected with NKG2D-Fc
# [10] = target: T4, FGFR3 (plate-coated); assay: ELISA: FGFR3 coated at 2 ug/ml, protein titrated, bound protein detected with NKG2D-Fc and anti-Fc-HRP; remark: listed apart in the source
binder,measurement,setting,value
B1,EC50 (read off the curve),[1],~0.005 phage OD
B2,EC50 (read off the curve),[1],~0.01 phage OD
B3,binding result,[2],binds
B4,apparent koff (pooled screen),[3],0.0017 s⁻¹
same,apparent kon (pooled screen),[3],290000 M⁻¹ s⁻¹
same,apparent Kd (pooled screen),[4],5.9 nM
B5,EC50 (read off the curve),[5],~5 nM
same,EC50 (read off the curve),[6],~5 nM
same,EC50 (read off the curve),[7],~2 nM
B6,EC50 (read off the curve),[8],~0.01 OD268 (phage)
B7,binding result,[9],binds
same,EC50 (read off the curve),[10],~2 nM

# — US20180134765A1 (AVIDBIOTICS, published 2018)
